Source: article PMC12483565, “CBFβ-SMMHC–driven leukemogenesis requires enhanced RUNX1-DNA binding affinity in mice”

Biological target: runt homology domain (RHD) of hRUNX1c (human)
Assay: BLI; biotinylated RHD loaded on streptavidin biosensors; CBFβ, CBFβ-SMMHC or mutants in solution at varying concentrations (50-600 nM); Octet RED96e; 20 mM Tris-HCl pH 8.0, 100 mM KCl, 1 mM EDTA, 1 mM DTT, 0.02% Tween 20; global fit

Row | Kd [nM] | Substance
1 | 13 | CBFβ-SMMHC (from UniProt Q13951 1-165)
2 | 64.7 | core-binding factor β (CBFβ) (from UniProt Q13951-2 1-187) (natural protein)
